Patent publication US20130090286A1 (published 2013)
Several values for one entry are separate records, joined by “and”; a condition that tells them apart may be missing. Identical values can stand only once. Numbered stars: 1 amine (or outer) side, 2 acyl side, 3 side chain; on linkers, the order of the positions; unused ones are H or OH. Bridge positions count the residues as written; N and C are the ends. Square brackets hold non-standard residues; d marks the D form. Side chains are listed from the residue outwards. Ends that are not written are not given here. * marks the point of attachment. γGlu = O=C(O)[C@H](CCC(=O)[*:2])N[*:1]; Palmitoyl = CCCCCCCCCCCCCCCC(=O)*; DMIA = not defined here; Aib = CC(C)(N)C(=O)O; βAla = NCCC(=O)O

B1: Peptide 82 (Table 22, SEQ ID NO: 564) (peptide)
peptide: H[Aib]QGTFTSDK([Ala-Ala-Palmitoyl])SKYLD[Aib]RRAQDFVQWLMNT-NH2
B2: Peptide 86 (Table 22, SEQ ID NO: 568) (peptide)
peptide: H[Aib]QGTFTSDK([Leu-Leu-Palmitoyl])SKYLD[Aib]RRAQDFVQWLMNT-NH2
B3: Peptide 83 (Table 22, SEQ ID NO: 565) (peptide)
peptide: H[Aib]QGTFTSDK([γGlu-γGlu-Palmitoyl])SKYLD[Aib]RRAQDFVQWLMNT-NH2
B4: Peptide 84 (Table 22, SEQ ID NO: 566) (peptide)
peptide: H[Aib]QGTFTSDK([βAla-βAla-Palmitoyl])SKYLD[Aib]RRAQDFVQWLMNT-NH2
B5: Chi-2, AIB2, I7, Lys10 γE-γE-C16 (SEQ ID NO: 650) (peptide)
peptide: H[Aib]QGTFISDK([γGlu-γGlu-Palmitoyl])SKYLDEQAAKEFIAWLMNT-NH2
modifications: N-terminus assumed
SMILES: CCCCCCCCCCCCCCCC(=O)N[C@@H](CCC(=O)N[C@@H](CCC(=O)NCCCC[C@H](NC(=O)[C@H](CC(=O)O)NC(=O)[C@H](CO)NC(=O)[C@@H](NC(=O)[C@H](Cc1ccccc1)NC(=O)[C@@H](NC(=O)CNC(=O)[C@H](CCC(N)=O)NC(=O)C(C)(C)NC(=O)[C@@H](N)Cc1c[nH]cn1)[C@@H](C)O)[C@@H](C)CC)C(=O)N[C@@H](CO)C(=O)N[C@@H](CCCCN)C(=O)N[C@@H](Cc1ccc(O)cc1)C(=O)N[C@@H](CC(C)C)C(=O)N[C@@H](CC(=O)O)C(=O)N[C@@H](CCC(=O)O)C(=O)N[C@@H](CCC(N)=O)C(=O)N[C@@H](C)C(=O)N[C@@H](C)C(=O)N[C@@H](CCCCN)C(=O)N[C@@H](CCC(=O)O)C(=O)N[C@@H](Cc1ccccc1)C(=O)N[C@H](C(=O)N[C@@H](C)C(=O)N[C@@H](Cc1c[nH]c2ccccc12)C(=O)N[C@@H](CC(C)C)C(=O)N[C@@H](CCSC)C(=O)N[C@@H](CC(N)=O)C(=O)N[C@H](C(N)=O)[C@@H](C)O)[C@@H](C)CC)C(=O)O)C(=O)O
B6: Chi-2, AIB2, Lys10 γE-C16 (SEQ ID NO: 645) (peptide)
peptide: H[Aib]QGTFTSDK([γGlu-Palmitoyl])SKYLDEQAAKEFIAWLMNT-NH2
modifications: N-terminus assumed
SMILES: CCCCCCCCCCCCCCCC(=O)N[C@@H](CCC(=O)NCCCC[C@H](NC(=O)[C@H](CC(=O)O)NC(=O)[C@H](CO)NC(=O)[C@@H](NC(=O)[C@H](Cc1ccccc1)NC(=O)[C@@H](NC(=O)CNC(=O)[C@H](CCC(N)=O)NC(=O)C(C)(C)NC(=O)[C@@H](N)Cc1c[nH]cn1)[C@@H](C)O)[C@@H](C)O)C(=O)N[C@@H](CO)C(=O)N[C@@H](CCCCN)C(=O)N[C@@H](Cc1ccc(O)cc1)C(=O)N[C@@H](CC(C)C)C(=O)N[C@@H](CC(=O)O)C(=O)N[C@@H](CCC(=O)O)C(=O)N[C@@H](CCC(N)=O)C(=O)N[C@@H](C)C(=O)N[C@@H](C)C(=O)N[C@@H](CCCCN)C(=O)N[C@@H](CCC(=O)O)C(=O)N[C@@H](Cc1ccccc1)C(=O)N[C@H](C(=O)N[C@@H](C)C(=O)N[C@@H](Cc1c[nH]c2ccccc12)C(=O)N[C@@H](CC(C)C)C(=O)N[C@@H](CCSC)C(=O)N[C@@H](CC(N)=O)C(=O)N[C@H](C(N)=O)[C@@H](C)O)[C@@H](C)CC)C(=O)O
B7: Chi-2, AIB2, E3, Lys10 γE-γE-C16 (SEQ ID NO: 648) (peptide)
peptide: H[Aib]EGTFTSDK([γGlu-γGlu-Palmitoyl])SKYLDEQAAKEFIAWLMNT
B8: Chi-2, AIB2, I7, Lys10 γE-C16 (SEQ ID NO: 649) (peptide)
peptide: H[Aib]QGTFISDK([γGlu-Palmitoyl])SKYLDEQAAKEFIAWLMNT-NH2
modifications: N-terminus assumed
SMILES: CCCCCCCCCCCCCCCC(=O)N[C@@H](CCC(=O)NCCCC[C@H](NC(=O)[C@H](CC(=O)O)NC(=O)[C@H](CO)NC(=O)[C@@H](NC(=O)[C@H](Cc1ccccc1)NC(=O)[C@@H](NC(=O)CNC(=O)[C@H](CCC(N)=O)NC(=O)C(C)(C)NC(=O)[C@@H](N)Cc1c[nH]cn1)[C@@H](C)O)[C@@H](C)CC)C(=O)N[C@@H](CO)C(=O)N[C@@H](CCCCN)C(=O)N[C@@H](Cc1ccc(O)cc1)C(=O)N[C@@H](CC(C)C)C(=O)N[C@@H](CC(=O)O)C(=O)N[C@@H](CCC(=O)O)C(=O)N[C@@H](CCC(N)=O)C(=O)N[C@@H](C)C(=O)N[C@@H](C)C(=O)N[C@@H](CCCCN)C(=O)N[C@@H](CCC(=O)O)C(=O)N[C@@H](Cc1ccccc1)C(=O)N[C@H](C(=O)N[C@@H](C)C(=O)N[C@@H](Cc1c[nH]c2ccccc12)C(=O)N[C@@H](CC(C)C)C(=O)N[C@@H](CCSC)C(=O)N[C@@H](CC(N)=O)C(=O)N[C@H](C(N)=O)[C@@H](C)O)[C@@H](C)CC)C(=O)O
B9: AIB2, AIB16, A18, D28, Lys10 γE-C16 (SEQ ID NO: 656) (peptide)
peptide: H[Aib]QGTFTSDK([γGlu-Palmitoyl])SKYLD[Aib]RAAQDFVQWLMDT-NH2
B10: DMIA1, E16/K20 lactam, Lys29 γE-C16 (SEQ ID NO: 653) (peptide)
peptide: XSQGTFTSDYSKYLDERRAKDFVQWLMNK
modifications: DMIA at position 1; E16/K20 lactam; C16 fatty acyl on Lys29 via γ-Glu spacer
B11: DMIA1, E16/K20 lactam, Lys29 γE-γE-C16 (SEQ ID NO: 654) (peptide)
peptide: XSQGTFTSDYSKYLDERRAKDFVQWLMNK
modifications: DMIA at position 1; E16/K20 lactam; C16 fatty acyl on Lys29 via γ-Glu-γ-Glu spacer
B12: Chi-2, d-Ser2, Lys10 γE-C16 (SEQ ID NO: 643) (peptide)
peptide: H[dS]QGTFTSDK([γGlu-Palmitoyl])SKYLDEQAAKEFIAWLMNT
B13: Chi-2, d-Ser2, Lys10 γE-γE-C16 (SEQ ID NO: 644) (peptide)
peptide: H[dS]QGTFTSDK([γGlu-γGlu-Palmitoyl])SKYLDEQAAKEFIAWLMNT
B14: DMIA1, E16/K20 lactam, Lys10 γE-C16 (SEQ ID NO: 651) (peptide)
peptide: [DMIA]SQGTFTSDK([γGlu-Palmitoyl])SKYLDERRAKDFVQWLMNT
modifications: lactam 16-20; reading uncertain
B15: Chi-2, AIB2, E3, Lys10-C16, no spacer (SEQ ID NO: 647) (peptide)
peptide: H[Aib]EGTFTSDK(Palmitoyl)SKYLDEQAAKEFIAWLMNT-NH2
modifications: N-terminus assumed
SMILES: CCCCCCCCCCCCCCCC(=O)NCCCC[C@H](NC(=O)[C@H](CC(=O)O)NC(=O)[C@H](CO)NC(=O)[C@@H](NC(=O)[C@H](Cc1ccccc1)NC(=O)[C@@H](NC(=O)CNC(=O)[C@H](CCC(=O)O)NC(=O)C(C)(C)NC(=O)[C@@H](N)Cc1c[nH]cn1)[C@@H](C)O)[C@@H](C)O)C(=O)N[C@@H](CO)C(=O)N[C@@H](CCCCN)C(=O)N[C@@H](Cc1ccc(O)cc1)C(=O)N[C@@H](CC(C)C)C(=O)N[C@@H](CC(=O)O)C(=O)N[C@@H](CCC(=O)O)C(=O)N[C@@H](CCC(N)=O)C(=O)N[C@@H](C)C(=O)N[C@@H](C)C(=O)N[C@@H](CCCCN)C(=O)N[C@@H](CCC(=O)O)C(=O)N[C@@H](Cc1ccccc1)C(=O)N[C@H](C(=O)N[C@@H](C)C(=O)N[C@@H](Cc1c[nH]c2ccccc12)C(=O)N[C@@H](CC(C)C)C(=O)N[C@@H](CCSC)C(=O)N[C@@H](CC(N)=O)C(=O)N[C@H](C(N)=O)[C@@H](C)O)[C@@H](C)CC
B16: AIB2, AIB16, A18, D28, Lys10 γE-γE-C16 (SEQ ID NO: 655) (peptide)
peptide: H[Aib]QGTFTSDK([γGlu-γGlu-Palmitoyl])SKYLD[Aib]RAAQDFVQWLMDT-NH2
modifications: N-terminus assumed
SMILES: CCCCCCCCCCCCCCCC(=O)N[C@@H](CCC(=O)N[C@@H](CCC(=O)NCCCC[C@H](NC(=O)[C@H](CC(=O)O)NC(=O)[C@H](CO)NC(=O)[C@@H](NC(=O)[C@H](Cc1ccccc1)NC(=O)[C@@H](NC(=O)CNC(=O)[C@H](CCC(N)=O)NC(=O)C(C)(C)NC(=O)[C@@H](N)Cc1c[nH]cn1)[C@@H](C)O)[C@@H](C)O)C(=O)N[C@@H](CO)C(=O)N[C@@H](CCCCN)C(=O)N[C@@H](Cc1ccc(O)cc1)C(=O)N[C@@H](CC(C)C)C(=O)N[C@@H](CC(=O)O)C(=O)NC(C)(C)C(=O)N[C@@H](CCCNC(=N)N)C(=O)N[C@@H](C)C(=O)N[C@@H](C)C(=O)N[C@@H](CCC(N)=O)C(=O)N[C@@H](CC(=O)O)C(=O)N[C@@H](Cc1ccccc1)C(=O)N[C@H](C(=O)N[C@@H](CCC(N)=O)C(=O)N[C@@H](Cc1c[nH]c2ccccc12)C(=O)N[C@@H](CC(C)C)C(=O)N[C@@H](CCSC)C(=O)N[C@@H](CC(=O)O)C(=O)N[C@H](C(N)=O)[C@@H](C)O)C(C)C)C(=O)O)C(=O)O
B17: Chi-2, AIB2, Lys10 γE-γE-C16 (SEQ ID NO: 646) (peptide)
peptide: H[Aib]QGTFTSDK([γGlu-γGlu-Palmitoyl])SKYLDEQAAKEFIAWLMNT-NH2
modifications: N-terminus assumed
SMILES: CCCCCCCCCCCCCCCC(=O)N[C@@H](CCC(=O)N[C@@H](CCC(=O)NCCCC[C@H](NC(=O)[C@H](CC(=O)O)NC(=O)[C@H](CO)NC(=O)[C@@H](NC(=O)[C@H](Cc1ccccc1)NC(=O)[C@@H](NC(=O)CNC(=O)[C@H](CCC(N)=O)NC(=O)C(C)(C)NC(=O)[C@@H](N)Cc1c[nH]cn1)[C@@H](C)O)[C@@H](C)O)C(=O)N[C@@H](CO)C(=O)N[C@@H](CCCCN)C(=O)N[C@@H](Cc1ccc(O)cc1)C(=O)N[C@@H](CC(C)C)C(=O)N[C@@H](CC(=O)O)C(=O)N[C@@H](CCC(=O)O)C(=O)N[C@@H](CCC(N)=O)C(=O)N[C@@H](C)C(=O)N[C@@H](C)C(=O)N[C@@H](CCCCN)C(=O)N[C@@H](CCC(=O)O)C(=O)N[C@@H](Cc1ccccc1)C(=O)N[C@H](C(=O)N[C@@H](C)C(=O)N[C@@H](Cc1c[nH]c2ccccc12)C(=O)N[C@@H](CC(C)C)C(=O)N[C@@H](CCSC)C(=O)N[C@@H](CC(N)=O)C(=O)N[C@H](C(N)=O)[C@@H](C)O)[C@@H](C)CC)C(=O)O)C(=O)O
B18: DMIA1, E16/K20 lactam, Lys10 γE-γE-C16 (SEQ ID NO: 652) (peptide)
peptide: [DMIA]SQGTFTSDK([γGlu-γGlu-Palmitoyl])SKYLDERRAKDFVQWLMNT
modifications: lactam 16-20; reading uncertain

target: T1, GLP-1 receptor (UniProt P43220 24-463, limits assumed); assay: cell-based or functional assay

Binder	cAMP EC50 [pM]
B1	108
B2	6
B3	43
B4	4

target: glucagon receptor (UniProt P47871 26-477, limits assumed); assay: cell-based or functional assay
Sequence (P47871 26-477 limits assumed): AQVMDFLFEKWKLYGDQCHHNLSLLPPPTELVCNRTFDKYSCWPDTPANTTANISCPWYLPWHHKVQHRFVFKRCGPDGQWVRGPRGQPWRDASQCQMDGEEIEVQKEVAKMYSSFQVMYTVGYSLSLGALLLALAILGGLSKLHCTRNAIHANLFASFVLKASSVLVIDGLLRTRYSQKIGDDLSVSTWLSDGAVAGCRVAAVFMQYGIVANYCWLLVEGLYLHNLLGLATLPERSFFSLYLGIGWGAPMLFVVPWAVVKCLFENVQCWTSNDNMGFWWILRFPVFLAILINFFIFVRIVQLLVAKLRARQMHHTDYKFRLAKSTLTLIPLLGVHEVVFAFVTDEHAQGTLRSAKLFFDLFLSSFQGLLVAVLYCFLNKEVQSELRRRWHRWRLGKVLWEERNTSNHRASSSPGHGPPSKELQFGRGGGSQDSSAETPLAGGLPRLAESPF

Binder	in vitro activity EC50 [pM]
B5	7
B6	25
B7	2920
B8	14
B9	6
B10	107
B11	25
B12	11
B13	8
B14	19
B15	46100
B16	3
B17	14

target: T1, GLP-1 receptor; assay: cell-based or functional assay; remark: another data set of the same source

Binder	in vitro activity EC50
B5	10 pM
B6	1.4 pM
B7	4 pM
B8	24 pM and 44 pM
B9	4 pM
B10	75 pM
B11	70 pM
B12	1.4 pM
B13	3 pM
B14	6 pM
B15	5 pM
B16	4 pM
B17	1.8 pM
B18	4 pM
